How the values were obtained:
[1] = target: V5 epitope-tagged soluble ZIKV E, covalently stabilised dimer carrying A264C (sE-cvD) (Zika virus (strain ArD158095)); assay: non-reducing SDS-PAGE
[2] = target: ZIKV full-length E protein carrying A264C (covalent dimer), in virus-like particles (VLP-cvD) (Zika virus (strain PE243)); assay: non-reducing SDS-PAGE with western blot

Row | Substance | stoichiometry N [1] | stoichiometry N [2]
1 | V5 epitope-tagged soluble ZIKV E, covalently stabilised dimer carrying A264C (sE-cvD) (domain or fragment) | 2 | –
2 | ZIKV full-length E protein carrying A264C (covalent dimer), in virus-like particles (VLP-cvD) (natural protein) | – | 2

Source: publication doi:10.1101/2020.07.09.196626
